Assay results as given in patent US7405286B2, “Stars—A muscle-specific actin-binding protein” (The Board of Regents of the University of Texas System, priority 2002, dated 2008).
“Also recorded” adds a separate entry of the source.

B1: Del248-262: small internal STARS deletion mutant within the conserved region (protein)
chain: MAPGEKESGEGPAKSALRKIRTATLVISLARGWQQWANENSIRQAQEPTGWLPGGTQDSPQAPKPITPPTSHQKAQSAPKSPPRLPEGHGDGQSSEKAPEVSHIKKKEVSKTVVSKTYERGGDVSHLSHRYERDAGVLEPGQPENDIDRILHSHGSPTRRRKCANLVSELTKGWRVMEQEEPTWRSDSVDTEDSGYGGEAEERPEQDGVQVAVVRIKRPLPSQVNRFTEKLNCKAQQKYSPVGNLKGNPFSEEFDYELAMSTRLHKGDEGYGRPKEGTKTAERAKRAEEHIYREMMDMCFIICTMARHRRDGKIQVTFGDLFDRYVRISDKVVGILMRARKHGLVDFEGEMLWQGRDDHV
modifications: left off: small tags and cut ends
notes: small internal STARS deletion mutant within the conserved region
B2: Del234-247: small internal STARS deletion mutant within the conserved region (protein)
chain: MAPGEKESGEGPAKSALRKIRTATLVISLARGWQQWANENSIRQAQEPTGWLPGGTQDSPQAPKPITPPTSHQKAQSAPKSPPRLPEGHGDGQSSEKAPEVSHIKKKEVSKTVVSKTYERGGDVSHLSHRYERDAGVLEPGQPENDIDRILHSHGSPTRRRKCANLVSELTKGWRVMEQEEPTWRSDSVDTEDSGYGGEAEERPEQDGVQVAVVRIKRPLPSQVNRFTEKLNCRWQQWADEHIQSQKLNPFSEEFDYELAMSTRLHKGDEGYGRPKEGTKTAERAKRAEEHIYREMMDMCFIICTMARHRRDGKIQVTFGDLFDRYVRISDKVVGILMRARKHGLVDFEGEMLWQGRDDHV
modifications: left off: small tags and cut ends
notes: as for B1
B3: STARS: novel 375-amino acid muscle-specific actin-binding protein, expressed from a Myc-tagged expression vector (protein, UniProt Q8BUZ1 1-375, looked up)
Actin-binding Rho-activating …: MAPGEREREAGPAKSALRKVRTATLVINLARGWQQWANENSTKQAQEPAGWLPGATHDLPNAPKEAGPYQHAPKTLSPKPDRDGEGQHSEEATEVSHIKRKEVTRTVVSKAYERGGDVNYLSHRYENDGGVSEAIQPENDIDRILLSHDSPTRRRKCTNLVSELTKGWKVMEQEEPTWKSDSVDTEDSGYGGDMEERPEQDAAPVAPARIKRPLLSQANRYSETLNCKAHRKYSQVDNLKGRWQQWADEHVQSQKLNPFSDEFDYDLAMSTRLHKGDEGYGRPKEGSKTAERAKRAEEHIYREIMELCFVIRTMARHRRDGKIQVTFGELFDRYVRISDKVVGILMRARKHGLVHFEGEMLWQGRDDHVVITLLE
modifications: Myc tag
B4: Del263-279: small internal STARS deletion mutant within the conserved region (protein)
chain: MAPGEKESGEGPAKSALRKIRTATLVISLARGWQQWANENSIRQAQEPTGWLPGGTQDSPQAPKPITPPTSHQKAQSAPKSPPRLPEGHGDGQSSEKAPEVSHIKKKEVSKTVVSKTYERGGDVSHLSHRYERDAGVLEPGQPENDIDRILHSHGSPTRRRKCANLVSELTKGWRVMEQEEPTWRSDSVDTEDSGYGGEAEERPEQDGVQVAVVRIKRPLPSQVNRFTEKLNCKAQQKYSPVGNLKGRWQQWADEHIQSQKLHKGDEGYGRPKEGTKTAERAKRAEEHIYREMMDMCFIICTMARHRRDGKIQVTFGDLFDRYVRISDKVVGILMRARKHGLVDFEGEMLWQGRDDHV
modifications: left off: small tags and cut ends
notes: as for B1
B5: C142: STARS deletion mutant that encoded only the conserved carboxy-terminal region (142 amino acids) (protein)
chain: KAQQKYSPVGNLKGRWQQWADEHIQSQKLNPFSEEFDYELAMSTRLHKGDEGYGRPKEGTKTAERAKRAEEHIYREMMDMCFIICTMARHRRDGKIQVTFGDLFDRYVRISDKVVGILMRARKHGLVDFEGEMLWQGRDDHV
modifications: left off: small tags and cut ends
B6: N101-233: STARS deletion mutant lacking residues from the carboxy-terminus into the conserved region (protein)
chain: VSHIKKKEVSKTVVSKTYERGGDVSHLSHRYERDAGVLEPGQPENDIDRILHSHGSPTRRRKCANLVSELTKGWRVMEQEEPTWRSDSVDTEDSGYGGEAEERPEQDGVQVAVVRIKRPLPSQVNRFTEKLNC
modifications: left off: small tags and cut ends
notes: STARS deletion mutant lacking residues from the carboxy-terminus into the conserved region
B7: N100: STARS deletion mutant lacking residues from the carboxy-terminus into the conserved region (protein)
chain: MAPGEKESGEGPAKSALRKIRTATLVISLARGWQQWANENSIRQAQEPTGWLPGGTQDSPQAPKPITPPTSHQKAQSAPKSPPRLPEGHGDGQSSEKAPE
modifications: left off: small tags and cut ends
notes: as for B6

Columns and labels:
F-actin = test: Immunofluorescence / Phalloidin-TRITC staining of transfected COS cells; type: cell-based; settings: transfected COS cells, Myc-tagged proteins
Description: (§1) Transient Transfections, Reporter Assays and Immunofluorescence Microscopy. COS cells were maintained in DMEM with 10% FBS. Eighteen hours after plating, the medium was changed to serum-free medium and transfections were performed at 50% confluency using FuGENE reagent-6 (Roche Molecular Biochemicals) following manufacturer's instructions. Each transfection used 0.15 μg of plasmid DNA for the reporter assays, and 0.5-1.0 μg immunohistochemistry. Cytochalasin D 2 μM (Sigma-Aldrich), and Y-27632 75 μM (Tocris) were added directly just after transfection. Latrunculin B 0.5 μM (dissolved in 10% ethanol, Calbiochem) was added 12 hr after transfection and 10% ethanol (final concentration 0.01%) was added to control wells. Cells were harvested 36 hr after transfection and their luciferase and β-galactosidase activity were measured.
For measuring immunofluorescence, cells were rinsed with PBS and fixed in 4% paraformaldehyde for 10 min on ice. After rinsing with PBS, COS cells were incubated in 0.1% Triton X-100 in PBS for 5 min on ice. For rat neonatal cardiomyocytes, 1% Triton X-100 in PBS was used. Cells were blocked for 20 min at room temperature in 0.5% BSA in PBS for COS cells and in 1% BSA plus 3% goat serum in PBS for rat cardiomyocytes. Then, cells were incubated with first antibody diluted in 0.5% BSA in PBS for 30-60 min at room temperature or overnight at 4° C. Anti c-myc monoclonal antibody 9E10 (Santa Cruz) was used at a 1:200 dilution. Other antibodies were anti α-actinin monoclonal antibody (1:400; Sigma-Aldrich), α-tubulin antibody (1:2000; Sigma-Aldrich) and anti-vimentin antibody (1:500; Sigma-Aldrich). Secondary antibodies were anti mouse/rabbit IgG FITC or Texas red (Vector) used at a 1:200 dilution incubated with or without Phalloidin-TRITC (1:500; Sigma Aldrich).

SM22 promoter [1] = test: SM22-luciferase reporter assay in transiently transfected COS cells; type: cell-based; settings: for activation of SM22-luciferase / SRF transcription, in words: STARS and deletion mutants
Description: (§2) STARS Expression Plasmids. STARS expression constructs were generated using the pcDNA3.1 mammalian expression vector (Invitrogen) which was modified to contain an amino-terminal Myc-tag. Constitutively active RhoA (L63) and C3 transferase in Prk5 were generously provided by Dr. Alan Hall (University College, London, United Kingdom). The SM22-luciferase reporter 1343 bp promoter has been previously described (Li et al., 1995). The smooth muscle α actin-luciferase reporter contained the 4 kb promoter region ligated into the pBL3basic vector (Promega). The ANF reporter contained the 638 bp promoter region (a generous gift from Dr. Mona Nemer, Universite de Montreal, Montreal, Quebec, Canada). The 4× cfos reporter contained four tandem copies of the cfos CArG box with flanking sequences, as described (Chang et al., 2001). CMV-lacZ (Promega) was used as an internal control for transfection efficiency.
as §1

actin = test: Co-immunoprecipitation of Myc-tagged proteins with actin in COS cells; type: binding; settings: anti-Myc immunoprecipitation, anti-actin Western blot
Description: Western Blot and Co-immunoprecipitation Assay. Immunoprecipitation and western blot analysis was performed as described previously (Lu et al., 2000). For immunoprecipitation, cells were incubated with 1 μg anti c-myc polyclonal antibody A14 (Santa Cruz). Western blots were performed with anti-actin monoclonal antibody C4 (1:100; Roche Molecular Biochemicals) or anti c-myc monoclonal antibody 9E10 (1:1000; Santa Cruse) followed by incubation with secondary antibody HRP-conjugated anti mouse-IgG (Santa Cruse, Vector). To detect signals, blots were incubated with ECL (Santa Cruz) for 1 min, and exposed to film (Eastman Kodak Co).

cytomegalovirus promoter = cytomegalovirus promoter reporter assay; type: cell-based; settings: data not shown
Description: as §2
(§3) Transient Transfections, Reporter Assays and Immunofluorescence Microscopy. COS cells were maintained in DMEM with 10% FBS. Eighteen hours after plating, the medium was changed to serum-free medium and transfections were performed at 50% confluency using FuGENE reagent-6 (Roche Molecular Biochemicals) following manufacturer's instructions. […] Cells were harvested 36 hr after transfection and their luciferase and β-galactosidase activity were measured.

SM22 promoter [2] = test: SM22-luciferase reporter assay in F9 cells; type: cell-based; settings: low endogenous SRF expression
[3] = tested on: α-smooth muscle actin promoter; test: smooth muscle α actin-luciferase reporter assay in COS cells; type: cell-based
Description: as §2, §3

[4] = tested on: E1b promoter linked to four tandem copies of the CArG box from the c-fos promoter; test: 4× cfos CArG box reporter assay in COS cells; type: cell-based
Description: as §2, §3

[5] = tested on: atrial natriuretic factor (ANF) promoter; test: ANF reporter assay in COS cells; type: cell-based
Description: as §2, §3

Molecule | bundling of actin stress fibers (F-actin) | activation of SM22-luciferase / SRF transcription, in words (SM22 promoter [1]; COS cells) | co-immunoprecipitation with actin (actin) | association with F-actin / actin stress fibers (F-actin) | other results
B1 | induce actin bundles | activate SRF transcription | weak actin-binding activity |  | 
B2 | induce actin bundles | activate SRF transcription | weak actin-binding activity |  | 
B3 | induced stress fiber formation and bundling | activate SRF transcription | co-immunoprecipitated with actin | strongly colocalized with F-actin | activation of cytomegalovirus promoter (cytomegalovirus promoter): did not activate; effect on the SM22 promoter (SM22 promoter [2]): minimal effect; association with F-actin / actin stress fibers (F-actin; listed as STARS (wt)): strongly associates with F-actin; bundling of actin stress fibers (F-actin; listed as STARS (wt)): induces extremely thick bundles; bundling of actin stress fibers (F-actin; listed as Wild type STARS): induce actin bundles; stimulation of α-smooth muscle actin promoter [3]: weakly stimulated; activation of E1b promoter with four c-fos CArG boxes [4]: activated; stimulation of ANF promoter [5]: did not stimulate; also recorded: could not activate; activation of the SM22 promoter (SM22 promoter [1]; COS cells, STARS or RhoA (L63) expression vector alone): comparable levels; increase of SM22 promoter activity by STARS (SM22 promoter [1]; COS cells, in the presence of CD (2 μM)): 18 fold; responsiveness of SM22 promoter with mutated CArG boxes (SM22 promoter [1]; COS cells, mutSM22 reporter): abolished responsiveness; stimulation of expression of SM22 luciferase reporter (SM22 promoter [1]; transiently transfected COS cells, STARS expression vector): 40 fold
B4 | induce actin bundles | activate SRF transcription | weak actin-binding activity |  | 
B5 | increased stress fibers; also recorded: induce actin bundles | as effective as the full-length protein; also recorded: activate SRF transcription | co-immunoprecipitated with actin | associated with F-actin | 
B6 | abolished the ability of STARS to bundle actin stress fibers |  | did not bind actin | did not affect the association with F-actin | 
B7 | abolished the ability of STARS to bundle actin stress fibers |  | did not bind actin | did not affect the association with F-actin | 
